Source: patent publication US20150111251A1 (AbbVie / Abbott, published 2015)
Changes are numbered by the printed parent chain.

B1: AB382 (antibody, V domains shown)
VH: EIQLVQSGAEVKKPGASVKVSCKASGYTFTNYGMNWVRQAPGQGLEWMGWINTYTGEPTYADDFKGRVTFTTDTSTSTAYMELSSLRSEDTAVYYCARKFLTTVVVTDYAMDYWGQGTTVTVSS
VL: DIQMTQSPSSLSASVGDRVTITCRASQDISNYLNWYQQKPGKTVKLLIYYTSRLQSGVPSRFSGSGSGTDYTLTISSLQPEDFATYFCQQGNTLPPTFGQGTKLEIK
notes: Full-length humanized antibody made in HEK 293-6E; also called hMAK199VH.2b/hMAK199VL.1a
B2: AB383 (antibody, V domains shown)
VH: B1 VH
VL: B1 VL with T43A, V44P, F87Y
notes: Full-length humanized antibody made in HEK 293-6E; also called hMAK199VH.2b/hMAK199VL.1b
B3: AB385 (antibody, V domains shown)
VH: B1 VH
VL: DIVMTQSPAFLSVTPGEKVTITCRASQDISNYLNWYQQKPDQTVKLLIYYTSRLQSGVPSRFSGSGSGTDYTFTISSLEAEDAATYFCQQGNTLPPTFGQGTKLEIK
notes: Full-length humanized antibody made in HEK 293-6E; also called hMAK199VH.2b/hMAK199VL.2a
B4: AB386 (antibody, V domains shown)
VH: B1 VH
VL: B3 VL with T43A, V44P, F87Y
notes: Full-length humanized antibody made in HEK 293-6E; also called hMAK199VH.2b/hMAK199VL.2b

target: T1, Recombinant Human TNF-α/TNFSF1A (human, UniProt P01375 77-233); experiment: cell-based or functional assay
T1 sequence (P01375 77-233 limits assumed): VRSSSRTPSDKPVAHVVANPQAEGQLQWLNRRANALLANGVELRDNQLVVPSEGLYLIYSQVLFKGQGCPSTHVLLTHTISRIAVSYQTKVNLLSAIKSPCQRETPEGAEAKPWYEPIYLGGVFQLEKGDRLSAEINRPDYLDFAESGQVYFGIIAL

Going from B1 to B2, the “TNFα Neutralization Assay IC50 nM (L929 cells)” value rises from 1.19 nM to over 20 nM.

Going from B3 to B4, the “TNFα Neutralization Assay IC50 nM (L929 cells)” value rises from 9.76 nM to over 20 nM.

target: T1, Recombinant Human TNF-α/TNFSF1A; experiment: SPR (BIACORE), antibody captured, TNFα in solution
Procedure: The BIACORE assay (Biacore, Inc, Piscataway, N.J.) determines the affinity of antibodies with kinetic measurements of on-rate and off-rate constants. Binding of antibodies to a target antigen (for example, a purified recombinant target antigen) is determined by surface plasmon resonance-based measurements with a Biacore® 1000 or 3000 instrument (Biacore® AB, Uppsala, Sweden) using running HBS-EP (10 mM HEPES [pH 7.4], 150 mM NaCl, 3 mM EDTA, and 0.005% surfactant P20) at 25° C. All chemicals are obtained from Biacore® AB (Uppsala, Sweden) or otherwise from a different source as described. For example, approximately 5000 RU of goat anti-mouse IgG, (Fcγ), fragment specific polyclonal antibody (Pierce Biotechnology Inc, Rockford, Ill.) diluted in 10 mM sodium acetate (pH 4.5) is directly immobilized across a CM5 research grade biosensor chip using a standard amine coupling kit according to manufacturer's instructions and procedures at 25 μg/ml. Unreacted moieties on the biosensor surface are blocked with ethanolamine. Modified carboxymethyl dextran surface in flowcell 2 and 4 is used as a reaction surface. Unmodified carboxymethyl dextran without goat anti-mouse IgG in flow cell 1 and 3 is used as the reference surface. For kinetic analysis, rate equations derived from the 1:1 Langmuir binding model are fitted simultaneously to association and dissociation phases of all eight injections (using global fit analysis) with the use of Biaevaluation 4.0.1 software. Purified antibodies are diluted in HEPES-buffered saline for capture across goat anti-mouse IgG specific reaction surfaces. Antibodies to be captured as a ligand (25 μg/ml) are injected over reaction matrices at a flow rate of 5 μl/minute. The association and dissociation rate constants, kₒₙ (M⁻¹ s⁻¹) and koff (s⁻¹), are determined under a continuous flow rate of 25 μl/minute. Rate constants are derived by making kinetic binding measurements at different antigen concentrations ranging from 10-200 nM. The equilibrium dissociation constant (M) of the reaction between antibodies and the target antigen is then calculated from the kinetic rate constants by the following formula: KD=koff/kₒₙ. Binding is recorded as a function of time and kinetic rate constants are calculated. In this assay, on-rates as fast as 10⁶ M⁻¹ s⁻¹ and off-rates as slow as 10⁻⁶ s⁻¹ can be measured.

B1 and B2 are within 1.5-fold of each other in Kd: 2 nM for the first, 2.1 nM for the second.

B3 and B4 are within 1.5-fold of each other in Kd: 2.2 nM for the first, 2.3 nM for the second.

B1 and B2 are within 1.5-fold of each other in koff: 0.0015 s⁻¹ for the first, 0.0018 s⁻¹ for the second.

B3 and B4 are within 1.5-fold of each other in koff: 0.0019 s⁻¹ for the first, 0.0015 s⁻¹ for the second.

B1 and B2 are within 1.5-fold of each other in kon: 740000 M⁻¹ s⁻¹ for the first, 830000 M⁻¹ s⁻¹ for the second.

B3 and B4 are within 1.5-fold of each other in kon: 880000 M⁻¹ s⁻¹ for the first, 660000 M⁻¹ s⁻¹ for the second.
